PMC6201588, “Molecular cloning and characterization of vanillin dehydrogenase from Streptomyces sp. NL15-2K” (BMC Microbiology, 2018)

Assays:
[1] = tested on: COc1cc(C=O)ccc1O; test: purified protein; settings: co-substrate NAD+ (0.5 mM in standard assay), 30 °C, pH 9.5
[2] = tested on: NC(=O)c1ccc[n+]([C@@H]2O[C@H](COP(=O)(O)OP(=O)(O)OC[C@H]3O[C@@H](n4cnc5c(N)ncnc54)[C@H](O)[C@@H]3O)[C@@H](O)[C@H]2O)c1; test: purified protein; settings: co-substrate vanillin, pH 9.5, varied: cofactor
[3] = target: vanillin dehydrogenase from Streptomyces sp. NL15-2K (recombinant) (Streptomyces sp. NL15-2K); test: SEC; gel filtration of purified recombinant VDH on Superdex 200 10/300 GL, calibrated with thyroglobulin, ferritin, aldolase, conalbumin and ovalbumin; native mass compared with the subunit mass by SDS-PAGE

Row | stoichiometry N [3] | Substance | Km [1] [µM] | kcat [1] [s⁻¹] | kcat/Km [1] [M⁻¹ s⁻¹] | Km [2] [µM] | kcat [2] [s^− 1]
1 | – | VDH (vanillin dehydrogenase) from Streptomyces sp. NL15-2K (Streptomyces sp. NL15-2K; S2A) | 8.47 ± 0.91 | 9.35 ± 0.77 | 1.11e+06 ± 100000 | 647 ± 40.0 | 23.45 ± 0.59
2 | 4 | vanillin dehydrogenase from Streptomyces sp. NL15-2K (recombinant) (enzyme) | – | – | – | – | –
